# Data: patent publication US20100310590A1
# Target: IgEs from a serum pool of patients allergic to birch pollen (RAST 3+ and 4+ to Bet v 2) (human)
# Experiment: REAST inhibition: serum pool pre-incubated with inhibitor, IgE captured on anti-IgE plate, biotinylated Bet v 2 detection
row,percent inhibition of Bet v 2 wt binding to IgE at 1.45 ng inhibitor,Binder
1,13.4%,SEQ ID NO:4 (protein) MSWQTYVDEHLMCDIDGQASNSLASAIVGHDGSVWAQSSSFPQFKPQEITGIMKDFEEPGHLAPTGLHLGGIKYMVIQGEAGAVIRGGEGSGGITIKKTGQALVFGIYEEPVTPGQCNMVVERLGDYLIDQGL
2,71%,SEQ ID NO:3 (protein) MSWQTYVDEHLMCDIDGQASNSLASAIVGHDGSVWAQSSSFPQFTPQEITGIMKDFEEPGHLAPTGLHLGGIKYMVIQGEAGAVIRGKKGSGGITIKKTGQALVFGIYEEPVTPGQCNMVVERLGDYLIDQGL
3,40.4%,SEQ ID NO:2 (protein) MSWQTYVDEHLMCDIDGQASNSLASAIVGHDGSVWAQSASFPQFKPQEITGIMKDFEEPGHLAPTGLHLGGIKYMVIQGEAGAVIRGKKGSGGITIKKTGQALVFGIYEEPVTPGQCNMVVERLGDYLIDQGL

# The next lines start with the binder.
row,Binder,percent inhibition of Bet v 2 wt binding to IgE at 1.45 ng inhibitor
1,SEQ ID NO:6 (protein) MSWQTYVDEHLMCDIDGQASNSLASAIVGHDGSVWAQSASFPQFKPQEITGIMKDFEEPGHLAPTGLHLGGIKYMVIQGEAGAVIRGGEGSGGITIKKTGQALVFGIYEEPVTPGQCNMVVERLGDYLIDQGL,8.8%
2,wild-type Bet v 2 allergen (SEQ ID NO:1) (protein) MSWQTYVDEHLMCDIDGQASNSLASAIVGHDGSVWAQSSSFPQFKPQEITGIMKDFEEPGHLAPTGLHLGGIKYMVIQGEAGAVIRGKKGSGGITIKKTGQALVFGIYEEPVTPGQCNMVVERLGDYLIDQGL,82.6%
